Experimental data: IntAct's records for PubMed 31515488

B1: Notch homolog 2 N-terminal-like protein A (Homo sapiens), Q7Z3S9 (parent)
chain: MCVTYHNGTGYCKCPEGFLGEYCQHRDPCEKNRCQNGGTCVAQAMLGKATCRCASGFTGEDCQYSTSHPCFVSRPCLNGGTCHMLSRDTYECTCQVGFTGKECQWTDACLSHPCANGSTCTTVANQFSCKCLTGFTGQKCETDVNECDIPGHCQHGGTCLNLPGSYQCQCLQGFTGQYCDSLYVPCAPSPCVNGGTCRQTGDFTFECNCLPETVRRGTELWERDREVWNGKEHDEN
partner: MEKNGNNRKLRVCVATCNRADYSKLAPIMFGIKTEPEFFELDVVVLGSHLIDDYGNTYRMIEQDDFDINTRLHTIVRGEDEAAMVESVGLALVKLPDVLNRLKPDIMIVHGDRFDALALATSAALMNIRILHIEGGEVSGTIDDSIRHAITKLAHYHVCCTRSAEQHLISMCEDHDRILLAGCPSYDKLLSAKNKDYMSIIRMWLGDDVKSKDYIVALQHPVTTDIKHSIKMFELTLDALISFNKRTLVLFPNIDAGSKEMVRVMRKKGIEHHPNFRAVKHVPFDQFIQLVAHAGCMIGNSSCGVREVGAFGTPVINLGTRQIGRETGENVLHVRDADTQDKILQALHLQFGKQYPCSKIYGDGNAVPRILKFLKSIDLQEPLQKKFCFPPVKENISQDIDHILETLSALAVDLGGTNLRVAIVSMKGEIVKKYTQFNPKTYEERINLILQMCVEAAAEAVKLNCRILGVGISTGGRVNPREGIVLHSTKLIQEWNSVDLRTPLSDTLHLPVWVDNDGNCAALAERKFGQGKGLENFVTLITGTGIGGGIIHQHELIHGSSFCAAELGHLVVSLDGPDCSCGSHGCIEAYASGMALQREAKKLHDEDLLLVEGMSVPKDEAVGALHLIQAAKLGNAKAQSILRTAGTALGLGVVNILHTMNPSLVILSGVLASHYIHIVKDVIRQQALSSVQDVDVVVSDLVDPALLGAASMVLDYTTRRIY
B2: 14-3-3 protein theta (Homo sapiens), P27348 (parent)
chain: MEKTELIQKAKLAEQAERYDDMATCMKAVTEQGAELSNEERNLLSVAYKNVVGGRRSAWRVISSIEQKTDTSDKKLQLIKDYREKVESELRSICTTVLELLDKYLIANATNPESKVFYLKMKGDYFRYLAEVACGDDRKQTIDNSQGAYQEAFDISKKEMQPTHPIRLGLALNFSVFYYEILNNPELACTLAKTAFDEAIAELDTLNEDSYKDSTLIMQLLRDNLTLWTSDSAGEECDAAEGAEN
B3: Cyclic AMP-responsive element-binding protein 3-like protein 1 (Homo sapiens), Q96BA8 (parent)
chain: MDAVLEPFPADRLFPGSSFLDLGDLNESDFLNNAHFPEHLDHFTENMEDFSNDLFSSFFDDPVLDEKSPLLDMELDSPTPGIQAEHSYSLSGDSAPQSPLVPIKMEDTTQDAEHGAWALGHKLCSIMVKQEQSPELPVDPLAAPSAMAAAAAMATTPLLGLSPLSRLPIPHQAPGEMTQLPVIKAEPLEVNQFLKVTPEDLVQMPPTPPSSHGSDSDGSQSPRSLPPSSPVRPMARSSTAISTSPLLTAPHKLQGTSGPLLLTEEEKRTLIAEGYPIPTKLPLTKAEEKALKRVRRKIKNKISAQESRRKKKEYVECLEKKVETFTSENNELWKKVETLENANRTLLQQLQKLQTLVTNKISRPYKMAATQTGTCLMVAALCFVLVLGSLVPCLPEFSSGSQTVKEDPLAADGVYTASQMPSRSLLFYDDGAGLWEDGRSTLLPMEPPDGWEINPGGPAEQRPRDHLQHDHLDSTHETTKYLSEAWPKDGGNGTSPDFSHSKEWFHDRDLGPNTTIKLS
partner: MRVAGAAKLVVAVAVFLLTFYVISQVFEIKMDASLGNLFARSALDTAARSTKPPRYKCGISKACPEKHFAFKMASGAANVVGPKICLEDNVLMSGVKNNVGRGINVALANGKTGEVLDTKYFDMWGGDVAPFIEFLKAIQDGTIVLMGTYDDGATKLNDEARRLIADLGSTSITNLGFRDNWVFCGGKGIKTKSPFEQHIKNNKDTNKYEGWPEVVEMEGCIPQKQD
B4: 1-phosphatidylinositol 4,5-bisphosphate phosphodiesterase delta-4 (Homo sapiens), Q9BRC7 (parent)
chain: MASLLQDQLTTDQDLLLMQEGMPMRKVRSKSWKKLRYFRLQNDGMTVWHARQARGSAKPSFSISDVETIRNGHDSELLRSLAEELPLEQGFTIVFHGRRSNLDLMANSVEEAQIWMRGLQLLVDLVTSMDHQERLDQWLSDWFQRGDKNQDGKMSFQEVQRLLHLMNVEMDQEYAFSLFQAADTSQSGTLEGEEFVQFYKALTKRAEVQELFESFSADGQKLTLLEFLDFLQEEQKERDCTSELALELIDRYEPSDSGKLRHVLSMDGFLSYLCSKDGDIFNPACLPIYQDMTQPLNHYFICSSHNTYLVGDQLCGQSSVEGYIRALKRGCRCVEVDVWDGPSGEPVVYHGHTLTSRILFKDVVATVAQYAFQTSDYPVILSLETHCSWEQQQTMARHLTEILGEQLLSTTLDGVLPTQLPSPEELRRKILVKGKKLTLEEDLEYEEEEAEPELEESELALESQFETEPEPQEQNLQNKDKKKKSKPILCPALSSLVIYLKSVSFRSFTHSKEHYHFYEISSFSETKAKRLIKEAGNEFVQHNTWQLSRVYPSGLRTDSSNYNPQELWNAGCQMVAMNMQTAGLEMDICDGHFRQNGGCGYVLKPDFLRDIQSSFHPEKPISPFKAQTLLIQVISGQQLPKVDKTKEGSIVDPLVKVQIFGVRLDTARQETNYVENNGFNPYWGQTLCFRVLVPELAMLRFVVMDYDWKSRNDFIGQYTLPWTCMQQGYRHIHLLSKDGISLRPASIFVYICIQEGLEGDES
partner: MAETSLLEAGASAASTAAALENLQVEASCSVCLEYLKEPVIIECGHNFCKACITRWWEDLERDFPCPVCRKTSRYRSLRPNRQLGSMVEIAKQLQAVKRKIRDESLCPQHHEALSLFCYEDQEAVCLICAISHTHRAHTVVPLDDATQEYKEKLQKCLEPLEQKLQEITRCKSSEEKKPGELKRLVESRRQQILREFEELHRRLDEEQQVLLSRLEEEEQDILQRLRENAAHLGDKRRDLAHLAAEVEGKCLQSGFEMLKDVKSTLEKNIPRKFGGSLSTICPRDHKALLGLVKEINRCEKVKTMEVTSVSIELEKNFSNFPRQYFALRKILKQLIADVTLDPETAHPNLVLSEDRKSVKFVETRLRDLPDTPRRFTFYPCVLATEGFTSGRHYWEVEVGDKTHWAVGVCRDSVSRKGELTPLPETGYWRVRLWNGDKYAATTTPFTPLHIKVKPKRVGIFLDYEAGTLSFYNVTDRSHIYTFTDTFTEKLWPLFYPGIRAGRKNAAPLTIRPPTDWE

Variants of: B1
Conditions: with glcne_human GNE

Variant	effect of a mutation on the interaction
A115T	with no effect

Variants of: B2
Conditions: with tri42_human TRIM42, Q8IWZ5
tri42_human TRIM42, Q8IWZ5, sequence (Q8IWZ5 whole entry): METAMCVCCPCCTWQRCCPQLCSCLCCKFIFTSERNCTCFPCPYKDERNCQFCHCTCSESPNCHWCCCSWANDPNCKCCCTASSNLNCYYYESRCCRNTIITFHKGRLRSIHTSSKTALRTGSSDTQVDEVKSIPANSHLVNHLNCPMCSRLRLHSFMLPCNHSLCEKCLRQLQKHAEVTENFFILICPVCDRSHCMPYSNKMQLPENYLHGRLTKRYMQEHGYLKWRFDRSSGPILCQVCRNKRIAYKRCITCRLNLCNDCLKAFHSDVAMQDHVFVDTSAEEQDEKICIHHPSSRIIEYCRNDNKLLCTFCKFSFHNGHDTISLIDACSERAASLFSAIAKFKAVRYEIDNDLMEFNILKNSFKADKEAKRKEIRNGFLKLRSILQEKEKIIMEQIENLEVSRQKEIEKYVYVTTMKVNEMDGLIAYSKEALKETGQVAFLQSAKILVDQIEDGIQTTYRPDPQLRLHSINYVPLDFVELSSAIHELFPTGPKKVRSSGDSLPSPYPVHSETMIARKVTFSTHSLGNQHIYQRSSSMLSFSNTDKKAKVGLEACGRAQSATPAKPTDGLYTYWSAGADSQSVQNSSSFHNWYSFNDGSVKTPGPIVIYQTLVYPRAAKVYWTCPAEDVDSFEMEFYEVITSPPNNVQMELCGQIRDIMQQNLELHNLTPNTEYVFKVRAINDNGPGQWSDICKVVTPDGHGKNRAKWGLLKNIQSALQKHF

Variant	effect of a mutation on the interaction
A152S	with no effect

Variants of: B3
Conditions: with fam3c_human FAM3C

Variant	effect of a mutation on the interaction
A152T	with no effect
I516S	with no effect

Variants of: B4
Conditions: with tri39_human TRIM39, Q9HCM9

Variant	effect of a mutation on the interaction
N475K	with no effect
